Consider 2 molecules from article PMC10908866, “A structural and dynamic visualization of the interaction between MAP7 and microtubules” (Nature Communications, 2024).

B1: MAP7 microtubule-binding domain (MTBD), residues 59-170 (domain or fragment, human, UniProt Q14244 59-170, looked up)
chain: PVLRVDDRQRLARERREEREKQLAAREIVWLEREERARQHYEKHLEERKKRLEEQRQKEERRRAAVEEKRRQRLEEDKERHEAVVRRTMERSQKPKQKHNRWSWGGSLHGSP
notes: Uniformly [13C-15N] labelled in the NMR experiments; The deposited model PDB 8RC1 holds only a poly-alanine backbone of residues 63-151; also called MAP7 MTBD; MT-associated protein 7 MTBD; not shown: His-Tag, N-terminal, cleaved

Where no end group is shown, it is not given here.

The target of experiment [1] is T1, microtubules polymerised from porcine brain α/β-tubulin (porcine, UniProt P02550 1-451; P02554 1-445).
T1 construct: α-tubulin of porcine brain tubulin; β-tubulin of porcine brain tubulin; Polymer of α/β-tubulin heterodimers (13 or 14 protofilaments in cryo-EM); Brain tubulin is a mixture of isotypes; For ITC and NMR samples the methods say only 'lyophilized tubulin (Cytoskeleton)' without species; also called MTs; MT; source: bought: Cytoskeleton (porcine brain tubulin, Cat No. T240; lyophilized tubulin), …
T1 sequence (P02550 whole entry, chain 1 of 2): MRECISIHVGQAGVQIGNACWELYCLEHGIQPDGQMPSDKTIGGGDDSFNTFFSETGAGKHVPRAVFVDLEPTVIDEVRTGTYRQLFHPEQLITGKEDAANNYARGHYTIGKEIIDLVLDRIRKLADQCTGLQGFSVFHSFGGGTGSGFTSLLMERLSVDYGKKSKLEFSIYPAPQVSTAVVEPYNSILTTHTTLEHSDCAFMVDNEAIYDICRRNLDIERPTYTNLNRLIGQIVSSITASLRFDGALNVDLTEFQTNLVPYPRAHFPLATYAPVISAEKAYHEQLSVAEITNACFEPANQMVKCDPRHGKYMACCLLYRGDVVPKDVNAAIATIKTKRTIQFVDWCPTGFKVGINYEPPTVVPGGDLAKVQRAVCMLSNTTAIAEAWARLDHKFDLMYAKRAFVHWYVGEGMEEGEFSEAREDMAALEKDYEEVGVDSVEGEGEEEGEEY
T1 sequence (P02554 whole entry, chain 2 of 2): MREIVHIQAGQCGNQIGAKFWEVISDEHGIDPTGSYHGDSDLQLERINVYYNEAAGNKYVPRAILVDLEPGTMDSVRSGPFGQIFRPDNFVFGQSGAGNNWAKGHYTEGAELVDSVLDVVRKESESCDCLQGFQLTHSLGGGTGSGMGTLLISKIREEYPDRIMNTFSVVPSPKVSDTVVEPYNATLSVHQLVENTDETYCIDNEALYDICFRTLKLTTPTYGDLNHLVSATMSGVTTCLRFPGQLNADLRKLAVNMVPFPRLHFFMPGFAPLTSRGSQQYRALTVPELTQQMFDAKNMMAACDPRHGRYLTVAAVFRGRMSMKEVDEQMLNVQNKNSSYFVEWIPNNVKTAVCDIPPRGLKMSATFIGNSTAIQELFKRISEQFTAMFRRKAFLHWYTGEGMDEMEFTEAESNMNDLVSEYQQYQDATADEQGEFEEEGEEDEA
Nature of the experiment: ITC; 150 µM MAP7 MTBD titrated in 2 µL steps to 164 µL of 15 µM Taxol-stabilized MT; 37 °C; NMR buffer (40 mM NaPi pH 6.5, 150 mM NaCl) with 1 mM β-ME and 1 mM GTP; duplicates. The following applies: both partners purified. Background: In ITC the heat of successive injections is recorded.

In experiment [2] the target is B1. The experiment in a line: fluorescence polarisation; fluorescence anisotropy; 1 µM NHS-fluorescein-labelled α-CTT, MAP7 MTBD 200 to 0 µM, 384-well plate; 40 mM NaPi pH 6.5, 150 mM NaCl, 1 mM DTT; fit with DynaFit. The following applies: both partners purified.

A word on the Kd: it is the free concentration of one partner at which half of the binding sites on the other are occupied at equilibrium, for simple one-to-one binding. A low value points to higher affinity. What is called stoichiometry N is a count of units in the complex or per binding partner. Consider B1, for which, in experiment [1], the Kd is 0.94 µM and the “stoichiometry N” value worked out at 0.51 ± 0.09.

B2: NHS-fluorescein-labelled α-tubulin C-terminal tail peptide (peptide)
peptide: SVEGEGEEEGEEY
modifications: also: NHS-fluorescein attached, position not given here
notes: C-terminal tail of HeLa S3 α-tubulin, residues Ser 439-Tyr 451; also called fluorescein labelled α-CTT; NHS-fluorescein-labelled α-CTT; source: synthetic peptide, bought: Sigma-Aldrich; labelled with NHS-fluorescein and dialysed
B2 yielded a Kd in experiment [2] of 91.3 µM.
